Measured values from patent publication US20190359687A1 (Bayer, published 2019).
Blank lines part the entries; values can stand above or below the binder they belong to. No end group written: not given here. *: point of attachment. Biotin = O=C1N[C@H]2[C@H](CS[C@H]2CCCCC(=O)*)N1

Columns and labels:
[1] = biological target: T1, human glycophorin A in the red blood cell membrane (human, UniProt P02724 20-150); test: SPR, human RBC membranes, Fab
T1 construct: whole, on cells; used for intact RBC, isolated RBC membranes and transfected cells; the assay field tells which; also called GPA; hGPA
T1 sequence (looked up): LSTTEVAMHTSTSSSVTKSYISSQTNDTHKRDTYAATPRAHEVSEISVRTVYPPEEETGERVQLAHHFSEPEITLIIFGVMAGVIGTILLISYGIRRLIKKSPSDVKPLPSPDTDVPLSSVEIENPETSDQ
Experimental: Kinetic analysis of the antibody binding to human red blood cell membranes was also performed using surface plasmon resonance (SPR) using a Biacore instrument. In this assay membranes prepared from human red blood cells were attached to a L1 sensor matrix and antibodies were flowed over the RBC membranes.

GP13 peptide = biological target: T2, GP13 peptide (human); test: peptide ELISA, Fab
T2 peptide: Biotin-PPEEETGE
Text: (§1) These peptides were attached to the surface of a streptavidin coated plate via a biotin moiety that was present at the N-terminus of each peptide.

GP10 peptide = biological target: T3, GP10 peptide (human); test: peptide ELISA, Fab
T3 peptide: Biotin-TVYPPEEE
Text: as §1

GP16 peptide = biological target: T4, GP16 peptide (human); test: peptide ELISA, Fab
T4 peptide: Biotin-EETGERVQ
Text: as §1

GP12 peptide = biological target: T5, GP12 peptide (human); test: peptide ELISA, Fab
T5 peptide: Biotin-YPPEEETG
Text: as §1

GP11 peptide = biological target: T6, GP11 peptide (human); test: peptide ELISA, Fab
T6 peptide: Biotin-VYPPEEET
Text: as §1

GP15 peptide = biological target: T7, GP15 peptide (human); test: peptide ELISA, Fab
T7 peptide: Biotin-EEETGERV
Text: as §1

GP14 peptide = biological target: T8, GP14 peptide (human); test: peptide ELISA, Fab
T8 peptide: Biotin-PEEETGER
Text: as §1

GP7 peptide = biological target: T9, GP7 peptide (human); test: peptide ELISA, Fab
T9 peptide: Biotin-SVRTVYPP
Text: as §1

[2] = biological target: T10, Cynomolgus monkey glycophorin A on Cynomolgus monkey red blood cells or red blood cell membranes (Cynomolgus monkey); test: Fab on intact cyno RBC, unbound Fab by ELISA; 5 min after 200-fold dilution
T10 construct: whole, on cells; also called Cyno RBC; Cynomolgus monkey RBC membranes
Experimental: (§2) The binding of affinity matured Fab antibodies to intact Cynomolgus monkey RBC was measured. Cynomolgus monkey RBC were isolated from fresh anti-coagulated blood by centrifugation through a ficol gradient and washing in PBS buffer. RBC diluted to 1/10th of normal hematocrit were incubated with the Fab at a final concentration of 7 ug/ml for 1 hour at room temperature on a rotating shaker after which a sample was taken and the RBC were pelleted by centrifugation and the supernatant was collected. The remaining RBC suspension was diluted 200-fold in PBS buffer and incubated for a total of 2 hours at room temperature on a rotating shaker and samples were removed at 0, 5 min, 20 min, 1 h and 2 h and the RBC pelleted and the supernatant collected. […] The amount of Fab in the supernatants was then measured using an ELISA assay and the results used to calculate the percentage of the input Fab that was bound to the RBC.

[3] = biological target: T11, human glycophorin A on human red blood cells or red blood cell membranes (human, UniProt P02724 20-150); test: Fab on intact human RBC, unbound Fab by ELISA; 60 min after 200-fold dilution
T11 construct: whole, on cells; also called hRBC; human RBC membranes
T11 sequence (looked up): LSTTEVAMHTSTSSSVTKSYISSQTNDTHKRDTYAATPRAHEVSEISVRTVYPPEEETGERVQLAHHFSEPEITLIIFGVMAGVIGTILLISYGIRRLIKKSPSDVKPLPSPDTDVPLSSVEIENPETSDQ
Experimental: (§3) The binding of affinity matured Fab antibodies to intact human RBC was also measured. Human RBC were isolated from fresh anti-coagulated normal human blood by centrifugation through a ficol gradient and washing in PBS buffer. RBC diluted to 1/10th of normal hematocrit were incubated with purified Fab antibodies at a final concentration of 7 ug/ml for 1 hour at room temperature on a rotating shaker after which a sample was taken and the RBC were pelleted by centrifugation and the supernatant was collected. The remaining RBC suspension was diluted 200-fold in PBS buffer and incubated for a total of 2 hours at room temperature on a rotating shaker and samples were removed at 0, 5 min, 20 min, 1 h and 2 h and the RBC pelleted and the supernatant collected. The amount of Fab in the supernatants was then measured using an ELISA assay and the results used to calculate the percentage of the input Fab that was bound to the RBC. […] The percentage that remains bound after 200-fold dilution of the RBC suspension is an indication of the overall strength of the binding to human RBC.

[4] = biological target: T10, Cynomolgus monkey glycophorin A on …; test: Fab 7 ug/ml on intact cyno RBC, unbound Fab by ELISA; pre-dilution
Experimental: as §2

[5] = biological target: T10, Cynomolgus monkey glycophorin A on …; test: Fab on intact cyno RBC, unbound Fab by ELISA; 120 min after 200-fold dilution
Experimental: as §2

[6] = biological target: T12, GP8 peptide of the human GPA ectodomain (human, not fully specified (N-terminus)); test: ELISA, Fab 0.05 ug/ml on biotin-peptide on streptavidin plate
T12 peptide: VRTVYPPE
Text: as §1

[7] = biological target: T13, GP11 peptide of the human GPA ectodomain (human, not fully specified (N-terminus)); test: as above
T13 peptide: VYPPEEET
Text: as §1

[8] = biological target: T14, GP5 peptide of the human GPA ectodomain (human, N-terminal biotin); test: as above
T14 construct: Residues 42 to 61 of the human GPA extracellular domain
Text: as §1

[9] = biological target: T15, GP10 peptide of the human GPA ectodomain (human, not fully specified (N-terminus)); test: as above
T15 peptide: TVYPPEEE
Text: as §1

[10] = biological target: T16, GP16 peptide of the human GPA ectodomain (human, not fully specified (N-terminus)); test: as above
T16 peptide: EETGERVQ
Text: as §1

[11] = biological target: T17, GP9 peptide of the human GPA ectodomain (human, not fully specified (N-terminus)); test: as above
T17 peptide: RTVYPPEE
Text: as §1

[12] = biological target: T18, GP15 peptide of the human GPA ectodomain (human, not fully specified (N-terminus)); test: as above
T18 peptide: EEETGERV
Text: as §1

[13] = biological target: T19, GP13 peptide of the human GPA ectodomain (human, not fully specified (N-terminus)); test: as above
T19 peptide: PPEEETGE
Text: as §1

[14] = biological target: T20, GP7 peptide of the human GPA ectodomain (human, not fully specified (N-terminus)); test: as above
T20 peptide: SVRTVYPP
Text: as §1

[15] = biological target: T21, GP14 peptide of the human GPA ectodomain (human, not fully specified (N-terminus)); test: as above
T21 peptide: PEEETGER
Text: as §1

[16] = biological target: T22, GP12 peptide of the human GPA ectodomain (human, not fully specified (N-terminus)); test: as above
T22 peptide: YPPEEETG
Text: as §1

[17] = biological target: T11, human glycophorin A on human red blood …; test: Fab on intact human RBC, unbound Fab by ELISA; 120 min after 200-fold dilution
Experimental: as §3

[18] = biological target: T10, Cynomolgus monkey glycophorin A on …; test: Fab on intact cyno RBC, unbound Fab by ELISA; 60 min after 200-fold dilution
[19] = biological target: T10, Cynomolgus monkey glycophorin A on …; test: Fab on intact cyno RBC, unbound Fab by ELISA; 0 min after 200-fold dilution
Experimental: as §2

[20] = biological target: T12, GP8 peptide of the human GPA ectodomain; test: ELISA, Fab 0.5 ug/ml on biotin-peptide on streptavidin plate
Text: as §1

[21] = biological target: T13, GP11 peptide of the human GPA ectodomain; test: as above
Text: as §1

[22] = biological target: T14, GP5 peptide of the human GPA ectodomain; test: as above
Text: as §1

[23] = biological target: T15, GP10 peptide of the human GPA ectodomain; test: as above
Text: as §1

[24] = biological target: T16, GP16 peptide of the human GPA ectodomain; test: as above
Text: as §1

[25] = biological target: T17, GP9 peptide of the human GPA ectodomain; test: as above
Text: as §1

[26] = biological target: T18, GP15 peptide of the human GPA ectodomain; test: as above
Text: as §1

[27] = biological target: T19, GP13 peptide of the human GPA ectodomain; test: as above
Text: as §1

[28] = biological target: T20, GP7 peptide of the human GPA ectodomain; test: as above
Text: as §1

[29] = biological target: T21, GP14 peptide of the human GPA ectodomain; test: as above
Text: as §1

[30] = biological target: T22, GP12 peptide of the human GPA ectodomain; test: as above
Text: as §1

[31] = biological target: T11, human glycophorin A on human red blood …; test: Fab on intact human RBC, unbound Fab by ELISA; 20 min after 200-fold dilution
[32] = biological target: T11, human glycophorin A on human red blood …; test: Fab on intact human RBC, unbound Fab by ELISA; 5 min after 200-fold dilution
[33] = biological target: T11, human glycophorin A on human red blood …; test: Fab on intact human RBC, unbound Fab by ELISA; 0 min after 200-fold dilution
Experimental: as §3

[34] = biological target: T11, human glycophorin A on human red blood …; test: Fab 7 ug/ml on intact human RBC, unbound Fab by ELISA; pre-dilution
[35] = biological target: T10, Cynomolgus monkey glycophorin A on …; test: Fab on intact cyno RBC, unbound Fab by ELISA; 20 min after 200-fold dilution
Experimental: as §2

fold improvement of affinity against the parental antibody [1]: ~200 fold
B1: TPP-5907 Fab (Fab, V domains shown)
VH: EVQLVQSGAEVKKPGASVKVSCKASGYTFTTYTIHWVRQAPGQGLEWMGYINPGSGYTRYNPKFKGRVTMTRDKSTSTAYMELRSLRSDDTAVYYCQTGTRDYWGQGTTVTVSS
VL: DIQLTQSPSFLSASVGDRVTITCRASSSVSYIYWFQQKPGKAPKLLIYATSTLQSGVPSRFSGSGSGTEYTLTISSLQPEDFATYYCHQRNSFPYTFGQGTKLEIKR

binding result (GP13 peptide): no binding (tested: 0.5 ug/ml)
binding result (GP10 peptide): no binding (tested: 0.5 ug/ml)
binding result (GP16 peptide): no binding (tested: 0.5 ug/ml)
binding result (GP12 peptide): no binding (tested: 0.5 ug/ml)
binding result (GP11 peptide): no binding (tested: 0.5 ug/ml)
binding result (GP15 peptide): no binding (tested: 0.5 ug/ml)
binding result (GP14 peptide): no binding (tested: 0.5 ug/ml)
binding result (GP7 peptide): no binding (tested: 0.5 ug/ml)
B4: TPP-7790 Fab (Fab, V domains shown)
VH: EVQLVQSGAEVKKPGASVKVSCKASGYTFTTYAIHWVRQAPGQGLEWMGYINPSSGYTRYNPKFKHRVTMTRDKSTSTAYMELRSLRSDDTAVYYCWTGTRDYWGQGTTVTVSS
VL: DIQLTQSPSFLSASVGDRVTITCRASSSVRYIYWFQQKPGKAPKLLIYATSFLQSGVPSRFSGSGSGTEYTLTISSLQPEDFATYYCHQRNSFPYTFGQGTKLEIK
notes: as m92

Further lines, the binder ahead of its results:

B2: TPP-7792 Fab (Fab, V domains shown)
VH: EVQLVQSGAEVKKPGASVKVSCKASGYTFTTYAIHWVRQAPGQGLEWMGYINPSSGYTRYNPKFKGRVTMTRDKSTSTAYMELRSLRSDDTAVYYCWTGTRDYWGQGTTVTVSS
VL: DIQLTQSPSFLSASVGDRVTITCRASSSVRYIYWFQQKPGKAPKLLIYATSFRQSGVPSRFSGSGSGTEYTLTISSLQPEDFATYYCHQRNSFPYTFGQGTKLEIK
notes: as m92
binding result (GP13 peptide): no binding (tested: 0.5 ug/ml)
binding result (GP10 peptide): no binding (tested: 0.5 ug/ml)
binding result (GP16 peptide): no binding (tested: 0.5 ug/ml)
binding result (GP12 peptide): no binding (tested: 0.5 ug/ml)
binding result (GP11 peptide): no binding (tested: 0.5 ug/ml)
binding result (GP15 peptide): no binding (tested: 0.5 ug/ml)
binding result (GP14 peptide): no binding (tested: 0.5 ug/ml)
binding result (GP7 peptide): no binding (tested: 0.5 ug/ml)

B3: TPP-7792, affinity matured 6C12 Fab (Fab, V domains shown)
VH: EVQLVQSGAEVKKPGASVKVSCKASGYTFTTYAIHWVRQAPGQGLEWMGYINPSSGYTRYNPKFKGRVTMTRDKSTSTAYMELRSLRSDDTAVYYCWTGTRDYWGQGTTVTVSS
VL: DIQLTQSPSFLSASVGDRVTITCRASSSVRYIYWFQQKPGKAPKLLIYATSFRQSGVPSRFSGSGSGTEYTLTISSLQPEDFATYYCHQRNSFPYTFGQGTKLEIK
notes: Tested as Fab with a 6xHIS tag
percentage of input antibody bound [2]: 94%
percentage of input antibody bound [3]: 97%
percentage of input antibody bound [4]: 92%
percentage of input antibody bound [5]: 89%
binding signal in ELISA (relative light units) [6]: 291 RLU
binding signal in ELISA (relative light units) [7]: 0 RLU
binding signal in ELISA (relative light units) [8]: 3500 RLU
binding signal in ELISA (relative light units) [9]: 14 RLU
binding signal in ELISA (relative light units) [10]: -1 RLU
binding signal in ELISA (relative light units) [11]: 18 RLU
binding signal in ELISA (relative light units) [12]: -1 RLU
binding signal in ELISA (relative light units) [13]: -1 RLU
binding signal in ELISA (relative light units) [14]: 0 RLU
binding signal in ELISA (relative light units) [15]: -1 RLU
binding signal in ELISA (relative light units) [16]: -1 RLU
percentage of input antibody bound [17]: 96%
percentage of input antibody bound [18]: 92%
percentage of input antibody bound [19]: 96%
binding signal in ELISA (relative light units) [20]: 5130 RLU
binding signal in ELISA (relative light units) [21]: 2 RLU
binding signal in ELISA (relative light units) [22]: 7230 RLU
binding signal in ELISA (relative light units) [23]: 71 RLU
binding signal in ELISA (relative light units) [24]: 0 RLU
binding signal in ELISA (relative light units) [25]: 534 RLU
binding signal in ELISA (relative light units) [26]: 0 RLU
binding signal in ELISA (relative light units) [27]: 0 RLU
binding signal in ELISA (relative light units) [28]: 1 RLU
binding signal in ELISA (relative light units) [29]: 0 RLU
binding signal in ELISA (relative light units) [30]: 0 RLU
percentage of input antibody bound [31]: 96%
percentage of input antibody bound [32]: 97%
percentage of input antibody bound [33]: 97%
percentage of input antibody bound [34]: 98%
percentage of input antibody bound [35]: 93%
